Assay results: article PMC8280134, “Broadly cross-reactive human antibodies that inhibit genogroup I and II noroviruses” (Nature Communications, 2021)

Tests used:
Experiment in all cases: ELISA; indirect ELISA; VLP coated at 1 µg/mL on 384-well plates at 4 °C overnight, blocked with 5% nonfat dry milk in PBS with 0.05% Tween-20; mAb normalised for antigen-binding sites, from 500 nM with 11 serial dilutions; detection with anti-κ or -λ secondary antibodies
Conditions in all cases: both partners purified
[1] = molecular target: T1, HuNoV GII.3 virus-like particle (Norovirus Hu/GII.3/TCH-104/USA/2002 …, UniProt S4VLU9, strain)
T1 construct: also called GII.3 VLP

[2] = molecular target: T2, HuNoV GII.13 virus-like particle (Norovirus Hu/GII.13/VA173/2010/USA, strain)
T2 construct: also called GII.13 VLP
T2 chain: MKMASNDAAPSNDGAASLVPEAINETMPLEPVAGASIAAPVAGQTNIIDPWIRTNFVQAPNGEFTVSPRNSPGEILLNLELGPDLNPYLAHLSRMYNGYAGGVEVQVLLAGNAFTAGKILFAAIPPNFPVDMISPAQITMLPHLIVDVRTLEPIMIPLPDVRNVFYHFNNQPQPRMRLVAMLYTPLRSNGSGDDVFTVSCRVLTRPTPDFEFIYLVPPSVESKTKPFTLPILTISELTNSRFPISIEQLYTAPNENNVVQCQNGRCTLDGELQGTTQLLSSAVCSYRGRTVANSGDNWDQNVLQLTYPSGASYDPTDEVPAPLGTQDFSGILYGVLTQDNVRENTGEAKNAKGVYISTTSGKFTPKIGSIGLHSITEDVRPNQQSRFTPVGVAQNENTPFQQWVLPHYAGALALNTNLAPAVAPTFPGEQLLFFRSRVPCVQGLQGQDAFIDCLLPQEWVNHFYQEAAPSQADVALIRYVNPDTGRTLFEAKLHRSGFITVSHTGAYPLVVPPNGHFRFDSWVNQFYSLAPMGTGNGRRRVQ

[3] = molecular target: T3, HuNoV GII.17 virus-like particle (Norovirus …, strain)
T3 construct: also called GII.17 VLP
T3 chain: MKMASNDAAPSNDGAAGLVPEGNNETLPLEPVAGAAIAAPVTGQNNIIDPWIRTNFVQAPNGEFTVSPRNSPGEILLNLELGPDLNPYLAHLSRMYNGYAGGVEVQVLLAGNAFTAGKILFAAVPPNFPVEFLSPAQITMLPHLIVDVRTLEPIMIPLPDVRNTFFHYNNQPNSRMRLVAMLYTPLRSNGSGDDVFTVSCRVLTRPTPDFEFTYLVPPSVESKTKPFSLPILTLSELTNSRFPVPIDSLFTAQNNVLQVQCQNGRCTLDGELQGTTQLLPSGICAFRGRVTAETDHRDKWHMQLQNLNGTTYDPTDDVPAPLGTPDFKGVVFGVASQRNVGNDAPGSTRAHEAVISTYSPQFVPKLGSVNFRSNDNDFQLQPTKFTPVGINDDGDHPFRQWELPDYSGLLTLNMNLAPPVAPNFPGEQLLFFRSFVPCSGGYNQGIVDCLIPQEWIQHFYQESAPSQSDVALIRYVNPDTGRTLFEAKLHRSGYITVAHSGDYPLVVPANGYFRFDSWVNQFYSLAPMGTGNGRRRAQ

[4] = molecular target: T4, HuNoV GII.6 virus-like particle (Norwalk-like virus …, UniProt Q918A7, strain)
T4 construct: also called GII.6 VLP

Measured: binding result

B1: NORO-320 IgA (hybridoma-secreted dimeric IgA) (antibody, V domains shown)
VH: QVQLVQSGPEVKKPGSSVKVSCKASGGTVSSYAISWVRQAPGQGLEWMGGIIPIFDTTNYAQKFQGRVTITADESTGTSDMELSSLRSEDTAVYYCARDRVPSYSPSRRFSTKGAMWGKYGMDVWGQGTLVTVSS
VL: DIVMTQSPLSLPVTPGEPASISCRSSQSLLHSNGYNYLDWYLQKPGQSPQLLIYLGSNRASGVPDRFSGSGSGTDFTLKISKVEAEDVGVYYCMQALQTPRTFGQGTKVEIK
notes: also called mAb NORO-320; Hyb dimeric IgA
binds: all assays above
